From paper PMC7503452

What was measured:
Experiment in all cases: fluorescence anisotropy
[1] = target: A3H Hap I K117E/K121E (human, UniProt Q6NTF7 1-200, K117E;K121E)
[2] = target: A3H Hap I K117E (human, UniProt Q6NTF7 1-200, K117E)
[3] = target: A3H Hap VII (human, UniProt Q6NTF7 1-200, G105R)
[4] = target: A3H Hap II (human, UniProt Q6NTF7 1-181, G105R;K121D;E178D)
A3H Hap II, sequence (Q6NTF7 1-181 G105R/K121D/E178D): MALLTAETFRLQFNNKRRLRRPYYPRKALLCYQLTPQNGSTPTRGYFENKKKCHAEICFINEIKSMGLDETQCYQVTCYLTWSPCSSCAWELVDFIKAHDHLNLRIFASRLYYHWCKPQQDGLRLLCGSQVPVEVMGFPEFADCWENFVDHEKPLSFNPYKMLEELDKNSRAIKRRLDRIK

A3H Hap VII, sequence (Q6NTF7 whole entry G105R): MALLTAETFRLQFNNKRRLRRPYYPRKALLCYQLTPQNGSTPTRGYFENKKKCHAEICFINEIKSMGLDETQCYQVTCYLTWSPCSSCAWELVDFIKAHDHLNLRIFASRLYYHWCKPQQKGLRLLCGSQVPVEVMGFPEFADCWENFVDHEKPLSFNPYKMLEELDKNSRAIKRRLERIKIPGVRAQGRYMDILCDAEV
A3H Hap I K117E, sequence (Q6NTF7 whole entry K117E): as the sequence (Q6NTF7 whole entry G105R) above, with R105G, K117E counted along it
A3H Hap I K117E/K121E, sequence (Q6NTF7 whole entry K117E/K121E): as the sequence (Q6NTF7 whole entry G105R) above, with R105G, K117E, K121E counted along it

B1: 118-nt ssDNA (ssDNA)
DNA: GAATATAGTTTTTAGCTCAAAGTAAGTGAAGATAATTTAGAGAGTTGTAATGTGATATATGTGTATGAAAGATATAAGACTCAAAGTGAAAAGTTGTTAATGTGTGTAGATATGTTAA
modifications: internal fluorescein-dT at position 37
For B1, the Kd [1] was 1240 ± 88 nM, the Kd [2] was 3000 ± 1770 nM and the Kd [3] was 522 ± 4 nM. It also gave a Kd [4] of 492 ± 28 nM.
